According to publication PMC10502752:

Target: T1, TaB3-2A1-GST (Triticum aestivum, UniProt A0A3B6AVE6 1-220)
T1 sequence: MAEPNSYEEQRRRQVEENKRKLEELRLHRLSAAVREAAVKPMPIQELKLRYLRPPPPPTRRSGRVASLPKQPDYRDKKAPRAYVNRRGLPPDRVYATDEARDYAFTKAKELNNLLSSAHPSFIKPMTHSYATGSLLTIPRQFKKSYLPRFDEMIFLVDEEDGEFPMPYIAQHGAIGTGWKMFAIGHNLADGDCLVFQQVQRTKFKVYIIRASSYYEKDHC
Assay: EMSA

B1: CCRM1-1 probe (dsDNA)
DNA 1: CTTTTGTGTTGGCAAACTGCGCTTTTCCAACCGATTTTGTTCTTCTCGCGCTTTCTTCTTAGGCTAAACAAACCTCACCGTGCACGCAGCCATGGTCCTGAACCTTCA
DNA 2: TGAAGGTTCAGGACCATGGCTGCGTGCACGGTGAGGTTTGTTTAGCCTAAGAAGAAAGCGCGAGAAGAACAAAATCGGTTGGAAAAGCGCAGTTTGCCAACACAAAAG
  binding result: binds
